Results published in the nanobody polyreactivity screen of Harvey et al. (2022).

Assay: yeast display, Sf9 membrane polyspecificity reagent, FACS + sequencing; frameworks hold sequencing errors
Summary of the method: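 Synthetic nanobody libraries on Saccharomyces cerevisiae BJ5465 were galactose-induced for 36–48 hours, stained 1 hour at 4 °C with 10% biotinylated, detergent-solubilized Sf9 membrane reagent and enriched on streptavidin microbeads. FACS then separated cells into low and high (top ~1%) gates by anti-HA (expression) and streptavidin (reagent binding) fluorescence. Genes were colony-PCR amplified, MiSeq 2 × 250 sequenced and CDR-length filtered. A clone's polyreactivity label is that of its gate of origin.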

| Sequence | polyreactivity (PSR sort gate) |
| --- | --- |
| QVQLVESGGGLVQAGGSLRLSCAASGRTFAPYAMVWYRQAPGKERELVAAITYSGGSTYYADSVKGRFTISRDNAKNTVYLQMNSLIPADTAVYYCAADSDYDPYDYWGQGTQVTVSS | low polyreactivity |
| QVQLVESGGGLVQAGGSLRLSCAASGRTFARHVMGWYCQAPGKVRELVAGITTSGGSTYYADSVKGRFTISRDNPKNTGYFQMNSLKPEDTAVYYCATDRQRYYRTVRSPIFNYWGQGTQVTVSS | high polyreactivity |
| QVQLVESGGGLVQAGGSLRLSCAASGRTFARNVMGSYRQAPGKERELVAAIRGSGGSTYYADSVKGRFTISRDNSKNTVYLQMNSLKPEDTAVYYCAADSSYTKRYSPTKLHFEYWGQGTQVTVSS | high polyreactivity |
| QVQLVESGGGLVQAGGSLRLSCAASGRTFARYAIGWSRQAPGKERELVAAITRRGGSTYYADSVKGRFTLSRDNAKNTVYLQMNSLKPEDTAVYYCAAHYPNFGIGAYEYWGQGTQVTVSS | high polyreactivity |
| QVQLVESGGGLVQAGGSLRLSCAASGRTFARYAMGWYRQAPGKERELVASIRRGTSTNYADSVKGRFTISRDNAKNTVYLQMNSLKPEDTAVYYCAARVGTEGYHGDYWGQGTQVTVSS | high polyreactivity |
| QVQLVESGGGLVQAGGSLRLSCAASGRTFARYTMGWYRQAPGKERELVAAITSGGGSTYYADSVKGRFTISRDNAKNTVYLQMNSLKPEDTAVYYCNARRYYYITGRYGYWGQGTQVTVSS | high polyreactivity |
| QVQLVESGGGLVQAGGSLRLSCAASGRTFASNDMGWYRHAPGNERELVAGITGSGGSTYYADSVKGRFTISRDNAKNTVYLQMNSLKPEDTAVYYCAADRSRGYGYDYWGQGTQVTVSS | low polyreactivity |
| QVQLVESGGGLVQAGGSLRLSCAASGRTFASYAMGWYRKAPGKETELVATISSGDSTYADSVKGRFTISRDNAKITVYLQRNRLKPEDTAVYYCAAASDLPGTCGYDYWGQGTQVTVSS | low polyreactivity |
| QVQLVESGGGLVQAGGSLRLSCAASGRTFASYTMGWYRQAPGKERELVAAITRGGSTNYADSVKGRFTISRDNAKNTVYLQMNSLKPEDTAVYYCAARFSRSFGYNYWGQGTQVTVSS | high polyreactivity |
| QVQLVESGGGLVQAGGSLRLSCAASGRTFASYTMGWYRQPPGKESELVAAINARGGNTYYADSVKGRFTISRDNAKNTVYLQMNSLKPEDTAVYYCAARQKRFKVAAGYDYWGQGTQVTVSS | high polyreactivity |
| QVQLVESGGGLVQAGGSLRLSCAASGRTFAWYAMGWYRQAPGKERELVAAISSSGGTTYYADSVKGRFTISRDNAKNTVYLQMNSLKPEDTAVYYCAARPGFWEYWGWWYDRYEYWGQGTQVTVSS | low polyreactivity |
| QVQLVESGGGLVQAGGSLRLSCAASGRTFAYNAMGWYRQAAGKVRELVASITSGGSTNYADSVKGRFTISRDNAKNTVYLQMNSLKPEDTAVYYFIKDGKYHRVLYEYWGQGTQVTVSS | low polyreactivity |
| QVQLVESGGGLVQAGGSLRLSCAASGRTFAYNAMGWYRQAPGKERELVAGITGGNSRTYYADSVKGRFTISRDNAKNTVYLQMNSLKPEDTAVYYCARRFYKGTSKTNLFDYWGQGTQVTVSS | high polyreactivity |
| QVQLVESGGGLVQAGGSLRLSCAASGRTFAYNAMGWYRQAPGKERELVASITSGGSTNYSDSVKGRFTISRDNAKNTVYLQMNSLKPEDTAVYYCNKDGKYHRVLYDYCGQGTQVTVSS | low polyreactivity |
| QVQLVESGGGLVQAGGSLRLSCAASGRTFAYYAMGWYRQAPGKERELVAAIRRSGRTNYADSVKGRFTISRDNAKNTVYLQMNSLKQEDTAVYYCAADYWQGDLRYDYWGQGTQVTVSS | low polyreactivity |
| QVQLVESGGGLVQAGGSLRLSCAASGRTFAYYAMGWYRQAPGKERELVAAISSSGGITYYADSVKGRFTISRDNAKNTVYLQMNSLKPEDTAVYYCATPRARTRLRYYWGQGTQVTVSS | high polyreactivity |
| QVQLVESGGGLVQAGGSLRLSCAASGRTFAYYAMGWYRQAPGKERELVAAITLRSGSTYYADSVKGRFTISRDNAKNTVYLQMNSLKPEDTAVYYCATDSLGVDRPNYNYWGQGTQVTVSS | low polyreactivity |
| QVQLVESGGGLVQAGGSLRLSCAASGRTFAYYAMGWYRQAPGKERELVAAITTSGTRTYYADSVKGRFTISRDTAKNTVYLQMNSLKPEDTAVYSCAARYRYQYEFDYWGQGTQVTVSS | high polyreactivity |
| QVQLVESGGGLVQAGGSLRLSCAASGRTFAYYAMGWYRQAPGKERELVATISWTTGSTYYADSVKGRFTISRDNAKNTVYLQMNSLKPEDTAVYYCNKRYNNPYWYPGRYPYDYWGQGTQVTVSS | high polyreactivity |
| QVQLVESGGGLVQAGGSLRLSCAASGRTFCIYAMGWYIQAPGKEREFVAAISSSGGGTYYADSVKGRFTISRDNAKNTVYLQMNSLKPEDTAVYYCAADDGYSSNEYDYWGQGTQVTVSS | low polyreactivity |
| QVQLVESGGGLVQAGGSLRLSCAASGRTFCLNAMGWYRQAPGKERELVAAISKSDDSTYYADSVKGRFTISRDNAKNTVYLQMNSLKPEDTAVYYCNADYYGWWYDTDYIGGYDYDYWGQGTQVTVSS | low polyreactivity |
| QVQLVESGGGLVQAGGSLRLSCAASGRTFDGNAMGWYRQAPGKERELVAAISKRGGTTYYADSVKGRFTISRDKAKNTVYLQMTSLKPEDTAVYYCAAPYNTYSYSEGEYWGQGTQVTVST | low polyreactivity |

| Sequence | polyreactivity (PSR sort gate) |
| --- | --- |
| QVQLVESGGGLVQAGGSLRLSCAASGRTFDGNTMGWYRQAPGKERELVAAITKRGGSTYYADSVKGRFTISRDNAKNTVYLQMNSLKPEDTAVYYCNAVWRNWYARVDEYDYWGQGTQVTVSS | high polyreactivity |
| QVQLVESGGGLVQAGGSLRLSCAASGRTFDGYAMGWSRQAPGKERELVAAINRSGGNTYYADSVKGRFTISRDNAKNTVYLQMNSLNPVDTAVYYCAADGWTSIGVPDYQHDYWGQGTQVTVSS | high polyreactivity |
| QVQLVESGGGLVQAGGSLRLSCAASGRTFDGYAMGWYRQAPGKERELVASINGGGSTNYADSVKGRFTISRDNAKNTVYLQMNSLKPEDTAVYYCAAESKGTWHYLYTSPHYYWGQGTQVTVSS | low polyreactivity |
| QVQLVESGGGLVQAGGSLRLSCAASGRTFDGYSMGWYRQAPGKEREFVASINGGGSTNYADSVNGRFTISRDNAKNTVYLQMNSLKPEDTAVYYCAAESKGTWLYLYNSPHYYWGQGTQVTVSS | low polyreactivity |
| QVQLVESGGGLVQAGGSLRLSCAASGRTFDGYTMGWSRQAPGKERELVAAISRTGSTNYADSVKGRFTISRDNAKNTVYLQMNSLEPEDTAVYYCNAARRYFRYSRKTSAWYYYWGQGTQVTVSS | high polyreactivity |
| QVQLVESGGGLVQAGGSLRLSCAASGRTFDIYAMGWYRQAPGKERELVAAISSGGSTYYADSVKGRFTISRDNAKNTVYLQINSLKPEDTAVYYCAVRWYDQVSRRGIGYYWGQGSQVTVSS | low polyreactivity |
| QVQLVESGGGLVQAGGSLRLSCAASGRTFDLYAMGWDRQAPGKERELVAAITKGGGSTYYADSVKGRFTISRDNAKNTVYLQMNSLKPEDSAVYYCAARKYKRIYRISSGIGYYWGHGTQVTVSS | high polyreactivity |
| QVQLVESGGGLVQAGGSLRLSCAASGRTFDNNAMGWYRQAPGKEREFVAAITTGVGSTYADSVKGRFTISRDNAKNTVYLQMNSLKPEDTAVYYCAADSYWLFDAYDYWGQGTQVTVSS | low polyreactivity |
| QVQLVESGGGLVQAGGSLRLSCAASGRTFDPNAMGWYRQAPGKERELVAAISGRGTSTYYADSVKGRFTISRDDAKNTVYLQMNSLKPEDTAVYYCAKAGAGESIAKYDYWGQGTQVTVSS | low polyreactivity |
| QVQLVESGGGLVQAGGSLRLSCAASGRTFDPNAMGWYRQAPGKERELVAVITARGGNTSYADSVKGRFTISRDNAKNTVYLQMISLKPEDTAVYYCAAPADDTVHYQNYYWGQGTQVTVSS | low polyreactivity |
| QVQLVESGGGLVQAGGSLRLSCAASGRTFDPYAMGWYRQAPGKERELVAAITSSGGSTYYADSVKGRFTISRDNAKNTVYLQMNSLKPEDTAVYYCAAEQRDFIWWFYYWGQGTQVTVSS | high polyreactivity |
| QVQLVESGGGLVQAGGSLRLSCAASGRTFDRNAMGWYRQAPGKEREVVAAISSSSGSTYYADSVKGRFTISRDNAKNTVYLQMNSLKPEDTAVYYCATVRWYYSRPRPTTAYGYWGQGTQGTVSS | high polyreactivity |
| QVQLVESGGGLVQAGGSLRLSCAASGRTFDRYDMGWYRQAPGKERELVATISSSGGSTYYADSVKGRFTISRDNAKNTVYLQMNSLKPEDTAVYYCAADPSGDYWGQGTQVTVSS | low polyreactivity |
| QVQLVESGGGLVQAGGSLRLSCAASGRTFDSNTMGWYRQAPGKERELVAAITGSGGRTYYADSVKGRFTISRDNAKNTVYLQMNSLKPEDTAVYYCNADSLYRYGSQYYYWGQGTQVTVSS | high polyreactivity |
| QVQLVESGGGLVQAGGSLRLSCAASGRTFDSYAMGWYRQAPGTETELVAGITRSGDSSYADSVKGRFTISRDNAKNTVYLQMTSLKPEDTAVYYCNKEGTVGGTRGYWGQGTQVTVSS | low polyreactivity |
| QVQLVESGGGLVQAGGSLRLSCAASGRTFDSYTMGWYRQAPGKERELVAAINYSVASTNYADSLKGRFTISRDNAKITVYLQMNSLKTEDTAVYYCNRASAGWGPGTQVTVSS | low polyreactivity |
| QVQLVESGGGLVQAGGSLRLSCAASGRTFDVYAMGWYRQAPGKERELVAAISKRGGSTYYADSVKGRFTISRDNAKNTVYLQMNSLKPEDTAVYYCNAYQTGWKGYDYWGQGTQVTVSS | high polyreactivity |
| QVQLVESGGGLVQAGGSLRLSCAASGRTFDYNAMGWYRQAPGKERELVAAISYSTGTTYYADSVKGRFTISRDNAKNTVYLQMNSLKPEDTAVYYCAAEIFYSEYGYWGQGTQVTVSS | low polyreactivity |
| QVQLVESGGGLVQAGGSLRLSCAASGRTFDYYTMGWYRQAPGKERELVAAISRSSGRTYYADSVKGRFTISRDNAKNTVYLQMNSLKPEDTAVYYCAARYYLSVRYGYWGQGTQVTVSS | high polyreactivity |
| QVQLVESGGGLVQAGGSLRLSCAASGRTFEHYAMGWYRQAPGKEREFVAVIDSSDGSTYYADSVKGRFTISRDNAKNTVYLQMNSLKPEDTAVYYCLGGYYYLQYDYWGQGTQVTVSS | low polyreactivity |
| QVQLVESGGGLVQAGGSLRLSCAASGRTFEHYAMGWYRQAPGKERELVAAITWSGVSTYYADSVKGRFTISRDNAKNTVYVQMNSLKPEDTAVYYCAANWLGYGFDYWGQGTQVTVSS | low polyreactivity |
